Data as given in the RNAGym collection of RNA variant scans (doi:10.1073/pnas.2313332121).
Fewer inactive variants are shown than the library holds.

B1: TPR 5TU (parent)
chain: GGAUCUUCUCGAUCUAACAAAAAAGACAAAUCUGCCACAAAGCUUGAGAGCAUCUUCGGAUGCAGAGGCGGCAGCCUUCGGUGGCGCGAUAGCGCCAACGUUCUCAACUAUGACACGCAAAACGCGUGCUCCGUUGAAUGGAGUUUAUCAUG

Variants of: B1
Test: polymerase ribozyme fitness, log enrichment relative to wild type (log ratio); higher = more active; in vitro selection for triplet polymerase activity
Procedure, shortened: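 Genotype fitness is the logarithm of its enrichment divided by wild-type enrichment, using inverse-variance-weighted averages of replicates. That logarithm is base 2. Enrichment was measured by Illumina sequencing of input and output libraries from one triplicate in vitro selection round, with frozen incubation at −7 °C, on PCR-built, transcribed mutant libraries of each subunit of a heterodimeric triplet polymerase ribozyme, retaining genotypes with ≥10 input reads and ≥1 read per output.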

Variant	polymerase ribozyme fitness (log ratio)
GGAUCUUCUCGAUCUAACAAAAAAGACAAAUCUGCCACAAAGCUUAAGAGCAUCUUCGGAUGCAGAGGCGGCAGCCUUCGGUGGAGCGAUAGCGCCAACGUUCUCAACUAUGACACGCAAAACGCGUGCUCCGUUUAAUUGGGUUUAUCAUG [G46A C85A G136U G140U A142G]	≤ -4.2
GGAUCUUCUCGAUCUAACAAAAAAGACAAAUCUGCCACAAAGCUUAAGCGCAUCUUCGGAUGCAGAGGCGGCAGCCUUCGGUGGCGCGAUAGCGCCAACGGUCUCAACUAUGACACGCAAAACGCGUGCUCCGUUGAAUGGAGUUUAUCAUG [G46A A49C U101G]	≤ -4.2
GGAUCUUCUCGAUCUAACAAAAAAGACAAAUCUGCCACAAAGCUGGAGAGCAUCUUCGGAGGCAGAGGCGGCAGCCUUCGGUGGCGGCAUAGCGCCAACGUUCUCAACUAUGACACGGAAAACGCGUGGUCCGUUGAAUGAAGUUUAUCAUG [U45G U61G C87G G88C C118G C129G G141A]	≤ -4.2
GGAUCUUCUCGAUCUAACAAAAAAGACAAAUCUGCCACAAAGCUGGAGAGCAUCGUCGGAUGCAGAGGCGGCAGCCUUCGGUGGCGCGAUCGCGCCAACGAUCUCAGCUAUGACACGCAAAACGCGUGCUCCGUUGAAUGGAGUUUAUCAUG [U45G U55G A91C U101A A107G]	≤ -4.2
GGAUCUUCUCGAUCUAACAAAAAAGACAAAUCUGCCACAAAGCUUAAGAGCAUGUUCGGAUGCAGAGGCGGCAGCCUUCGGUGGCUCGAUAGCGCCAACGUUCUCAACUAUGACACACGAAACGCGUGCUCCGUUGGAUGCAUUUUAUCAUG [G46A C54G G86U G117A A119G A137G G141C G143U]	≤ -4.2
GGAUCUUCUCGAUCUAACAAAAAAGACAAAUCUGCCACAAAGCUUAAGAGCGUCUUCGGAUGCAGAGGCGGCAGCCUUCGGUGGAGCGAUAGCGCCAACGUUCUCAACUAUGACACGCAAAACGCGUGCUCCGUUGAAUGGAGUUUAUCAUG [G46A A52G C85A]	-2.54
GGAUCUUCUCGAUCUAACAAAAAAGACAAAUCUGCCACAAAGCUGGAGAGCAUCUACGGAUGCAGAGGAGGCAGCCUUCGGUGGCGCGAUAGCGCAAACGUUCUCAACUAUGACACGCAAAACGCGUGCUUCGUUUAAUGGAGUUUAUCAUG [U45G U56A C69A C96A C131U G136U]	-3.1
GGAUCUUCUCGAUCUAACAAAAAAGACAAAUCUGCCACAAAGCUUAAGAGCAUCUUCGGAUGCAGAGGCGGCAGCCUUCGGUGGCGCGAUAGCGCCCACGUUGUCAACUAUGACACGCAAAAAGCGUGCUCCGUUGAAUGCAGUUUCUAAUG [G46A A97C C103G C123A G141C A147C C149A]	≤ -4.2
GGAUCUUCUCGAUCUAACAAAAAAGACAAAUCUGCCACAAAGCUUAAGAGCAUCUUCGGAUGCAGAGGCGGCAGCCUUCGGUGGAGCGAUAGCGCCAACGUUCUCAACUAUGACACGCAAAACGCGUGCUCCGUUGAAUGGAGUUUAUCAUG [G46A C85A]	-2.16
GGAUCUUCUCGAUCUAACAAAAAAGACAAAUCUGCCACAAAGCUUAAGAGCAUCUUCGGAUGCAGAGGCGGCAGCCUUCGGUGGCGCGAUAGCGCCAAAGUUCUCAACUAUGAAACGCAAAACGCGUGAUCCGUUGAAUGAAGUUUAUCAUG [G46A C99A C114A C129A G141A]	≤ -4.2
GGAUCUUCUCGAUCUAACAAAAAAGACAAAUCUGCCACAAAGCUGGAGAGCAUCUUCGGAUGCAGAGGCGGCAGCCUUCGGUGGCGCGAUAGCGCCAACGUUCUCAACUAUGACACGCAAAACGCGUGCUCCGUUGAAUGGAGUUUAUCAUA [U45G G152A]	-1.18
GGAUCUUCUCGAUCUAACAAAAAAGACAAAUCUGCCACAAAGCUUAAGAGCAUCUUCGGAUGGAGACGCGGCAGCCUUCGGUGGUGCGAUAGCGCCAACGUUCUCAACUAUGACACGCAAAACGCGUGCUCCGUUGAAUGGAGUUUAUCAUG [G46A C63G G67C C85U]	≤ -4.2
GGAUCUUCUCGAUCUAACAAAAAAGACAAAUCUGCCACAAAGCUGGAGAGCAACUUCGGAUGCAGAGGCGGCAGACUUCGGUGGCGCGAUAGAGCCAACGUUCUCAACUAUGGCACGCAAAACGCGUGCUCCGUUGAAUGGAGUUUAUCAUG [U45G U53A C75A C93A A113G]	≤ -4.2
GGAUCUUCUCGAUCUAACAAAAAAGACAAAUCUGCCACAAAGCUUAAGAGCAUCUUCGGAUGCAGAGGCGGCAGCCUUCGGUGGCGCGAUAGCGCCAACGUUCUCAACUAUGACACGCAAAACGCGUGUUCCGUUGAAUGGAGUUUAUCAUG [G46A C129U]	-3.61
GGAUCUUCUCGAUCUAACAAAAAAGACAAAUCUGCCACAAAGCUUAAGAGGAUCUACGGAUGCAGAGGCGGCAGCCUUCGGUGGCGCUAUAGCGCCAACGUUCUCAACUAUGACACGCAAAACGCGUGCUCCGUUGAAUGAAGUUUAUCAUG [G46A C51G U56A G88U G141A]	≤ -4.2
GGAUCUUCUCGAUCUAACAAAAAAGACAAAUCUGCCACAAAGCUUAAGAGCAUCUUCAGAUGCAGAGGCGGCAGCCUUCGGUCGCGCGAUAGCGCCAACGUUCUCAACUAUGACACGCAAAACGCGUGCUCCGUUGAAUGGAGUUUAUCAUG [G46A G58A G83C]	-1.17
GGAUCUUCUCGAUCUAACAAAAAAGACAAAUCUGCCACAAAGCUUAAGAGCAUCUUCGGAUGCAGAGCCGGCAGCCUUCGGUGGCGCGCUAGCGCCAACGUUCUCAACUAUGACACGCAAAACACGUGCUCCGUUGAAUGGAGUUUAUCAUG [G46A G68C A89C G124A]	≤ -4.2
GGAUCUUCUCGAUCUAACAAAAAAGACAAAUCUGCCACAAAGCUGGAGAGCAUCUUCGGAUGCAGAGGCGGCAGCCUUCGGUGGCGCGAUAGCGCCAACGUUCUCAACUAUGACACGCAAAACGCGUUCUCCGUUGAAUGGAGUUUAUCAUG [U45G G128U]	-3.86
GGAUCUUCUCGAUCUAACAAAAAAGACAAAUCUGCCACAAAGCUUAAGAGCAUCUUCGGAUGCAGAGGCGGCAGCCUUCGGUGGCGCGAUAGCGCUAACGAUCUCAACUAUGACACGCAAAACGCGUGCUCCGUUGAAUGGAGUUUAUCAUG [G46A C96U U101A]	-2.59

Variant	polymerase ribozyme fitness (log ratio)
GGAUCUUCUCGAUCUAACAAAAAAGACAAAUCUGCCACAAAGCUUAAGAGCAUCUUCGGAUGCAGAGGCGGCAGCCUUCGGUGGCGCGAUAGUGCCAACGUUCUCAACUAUGACACGCAAAACGCGUGCUCCGUUGAAUGGAGUUUAUCAUG [G46A C93U]	-1.21
GGAUCUUCUCGAUCUAACAAAAAAGACAAAUCUGCCACAAAGCUUAAGAGCAUCUUCGGAUGCAGAGGCGGCAGCAUUCGGUGGCGCGAUAGCGCUAACGUUCUCAACUAUGACACGCAAAACGCGUGCUCCGUUGAAUGCAGUUUAUCAUG [G46A C76A C96U G141C]	≤ -4.2
GGAUCUUCUCGAUCUAACAAAAAAGACAAAUCUGCCACAAAGCUUAGAACCAUCUUCGGAUGCAGAGGCGGCAGCCUUCGGUGGCGCGAUAGCGCCAACGUUCUCAACUAUGACACGCAAAACGCGUGCUCCGUUAAAUGGAGUUUAUCAUG [G46A A47G G48A G50C G136A]	≤ -4.2
GGAUCUUCUCGAUCUAACAAAAAAGACAAAUCUGCCACAAAGCUUAAGAGCAUCUUCGGAUGCAGAGGAGGCAGCCUUCGGUGGCGCGAUAGCGCCAACGUUCUCAACUAUGACACGCAAAACGCGUGCUCCGUUGAAUGGAGUUUAUCAUG [G46A C69A]	-3.61
GGAUCUUCUCGAUCUAACAAAAAAGACAAAUCUGCCACAAAGCUGGAGAGCAUCUACGGAUGCAGAGGCGGCAGCCUUCGGUGGCGCGAUAGCGCCAACGUUCUCAACUAUGACACGCAAAACGCGUGCUCCGUUGAAUGGAGUUUAUCAUG [U45G U56A]	0.0147
GGAUCUUCUCGAUCUAACAAAAAAGACAAAUCUGCCACAAAGCUGGAGAGCAUCUUCGGAUGCAGAGGCGGCAGCCUUCGGUGGCGCGAUAUCGCCAACGUUAACAACUAUGACACGCAAAACGCGUGCUCCGUUGAAUGGAGUUUAUCAUG [U45G G92U C103A U104A]	≤ -4.2
GGAUCUUCUCGAUCUAACAAAAAAGACAAAUCUGCCACAAAGCUGGAGAGCAACUCCGGAUGCAGAGGCGGCAGCCUUCGGUGACGCGAUAGCGCCAACGUUCUCAACUAUGACACGCAAAACGUGUGCUCCGUUGGAUUGAGUUUAUAAUG [U45G U53A U56C G84A C125U A137G G140U C149A]	≤ -4.2
GGAUCUUCUCGAUCUAACAAAAAAGACAAAUCUGCCACAAAGCUUAAGAGCAUCUUCGGAUGCAGAGCCGGCAGCCUUCGGUCGCGCGAUAGCGCCAACGUUCUCAACUAUGACACGCAAAACGCGUGCUCCGUUGAAUGGAGUUUUUCAUG [G46A G68C G83C A147U]	≤ -4.2
GGAUCUUCUCGAUCUAACAAAAAAGACAAAUCUGCCACAAAGCUUAAGAGCAUCUUCGGAUGCAGAGGCGGCAGCCUUCGGUGGGGCGAUAGCGCCAACGUUCUCCACUAUGACACGCAAAACGAGUGCUCCGUUGAAUGGAGUUUAUCAUG [G46A C85G A106C C125A]	≤ -4.2
GGAUCUUCUCGAUCUAACAAAAAAGACAAAUCUGCCACAAAGCUUAAGAGCAUCUUCGGAUGCAGAGGCGGCAGCCUUCGGUGGAGCGAUAGCGCCAACGUUCUCAACUAUGACACGCAAAACGCGUGCUCCGUUGAAUGGAGUUUAUCCUG [G46A C85A A150C]	≤ -4.2
GGAUCUUCUCGAUCUAACAAAAAAGACAAAUCUGCCACAAAGCUUAAGAGCAUCUUCGGAUGCAGAAGCGGCAGCCUUCGGUGUCGCGAUAGCGCCGAUGUUCUCAACUAUGACAUGCAAAACGCGUGCUCCGUUGAAUGGAGUUUAUCAUG [G46A G67A G84U A97G C99U C116U]	≤ -4.2
GGAUCUUCUCGAUCUAACAAAAAAGACAAAUCUGCCACAAAGCUUAAGACCAUCUACGGAUGCAGAGGCGGCAGCCUUCGGUUGCGCGAUAGCGCCAACGUUCUCAACUAUGACACGCAAAACGCGUGCUCCGUUGAAUGGAGUUUCUCAUG [G46A G50C U56A G83U A147C]	≤ -4.2
GGAUCUUCUCGAUCUAACAAAAAAGACAAAUCUGCCACAAAGCUUAAGAGCAUCUUCGCAUGCAGAGGCGGCAGCUUUCGGUGGCGCGAUAGCGCUAACGUUCUCAACUAUGACAUGCAAAACGCGUGCUCCGUUGAAUGGAGUUUAUCAUG [G46A G59C C76U C96U C116U]	≤ -4.2
GGAUCUUCUCGAUCUAACAAAAAAGACAAAUCUGCCACAAAGCUUAAGAGCAUCUUCGGAUGCAGAGGCGGCAGCCUUCGGUGGCGUGCUAGCACCAACGUUCUCAACUAUGCCACGCAAAACGCGUGCUCCGUUGAAUGGAGUUUAUCAUG [G46A C87U A89C G94A A113C]	≤ -4.2
GGAUCUUCUCGAUCUAACAAAAAAGACAAAUCUGCCACAAAGCUUAAGAGCAUAUUCGGAUGCAGAGGCGGCAGCUUUCGGUGGCGCGAUAGCGCCAACGUUCUCAACUAUGACACGCAAAACGCGUGCUCCGUUGAAUGGAAUUUAUCAUG [G46A C54A C76U G143A]	≤ -4.2
GGAUCUUCUCGAUCUAACAAAAAAGACAAAUCUGCCACAAAGCUUAAGAACAUCUUUGGGUGCAGAGACGGCAGCCUUCGGUAGCGCGAUAGCUCCAACGUUCUCAACUAUGACACGCAAAACGCGUGCUCCGUUGAAUGCAGUUUAUCAUG [G46A G50A C57U A60G G68A G83A G94U G141C]	≤ -4.2
GGAUCUUCUCGAUCUAACAAAAAAGACAAAUCUGCCACAAAGCUUAAGAGCAUGUUCGGAUGCAGAGGCGGCAGCCUUCGGUGGCGCGAUAGCGUCAACGUUCUCAACUAUGACACGCAAAACGCGUGCUCCGUUGAAUGGAGUUUAUCAUG [G46A C54G C95U]	-2.17
GGAUCUUCUCGAUCUAACAAAAAAGACAAAUCUGCCACAAAGCUUAAGAGCAUCUUCGGAUGCAGAGGCGGCAGCAUUCGGUGGCUCGAUAGCGCCAACGUUCUCAACUAUGACACGCAAUACGCGUGCUCCGUUGAAUGGAGGUUAUCAUG [G46A C76A G86U A121U U144G]	≤ -4.2
GGAUCUUCUCGAUCUAACAAAAAAGACAAAUCUGCCACAAAGCUUAAGAGCAUCUUCGGAUGCAGAGGCGGCAGCCUUCGGUGGCGCGAUAGCGCCAAUGUUCUCAACUAUGACACGCAAAACGCGUGCUCCGUUGAAUGAAGUUUAUCAUG [G46A C99U G141A]	≤ -4.2
